Assay results published in PMC8973899.

Target: BD-GmSPX8 (soybean (Glycine max))

## AD-GmPTF1 (natural protein)
  luciferase (LUC) signal of E-box-LUC in N. benthamiana leaves with PSK-GmPTF1 and PSK-GmSPX8 against PSK-GmPTF1 alone: 50%
  β-galactosidase activity of yeast cells AH109 with pGBKT7-BD-GmPTF1 and pGADT7-AD-GmSPX8 against pGBKT7-BD-GmPTF1 alone: 2 times
